Assay results published in patent publication US20240317834A1, “COMPOSITIONS AND METHODS FOR NEUROLOGICAL DISEASES” (CODA BIOTHERAPEUTICS, INC., priority 2020, published 2024).

Test system: Lenti-X 293T cells
Test: YFP fluorescence quenching anion reporter plate reader assay of engineered receptors stimulated with acetylcholine or a non-native ligand
Assay type: cell-based
Method in brief: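 Lenti-X 293T cells carrying a YFP anion reporter were transiently transfected with channel DNA and assayed the next day in HEPES-buffered ECS at pH 7.2. Ligand (acetylcholine or non-native ligand) was added in NaI-substituted ECS. Percent quench was the mean of the last 10 s relative to the 15 s pre-addition baseline.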

B1: CODA965: engineered chimeric LGIC receptor, Y140C in SEQ ID NO: 33 (protein)
chain: MRCSPGGVWLALAASLLHVSLQGEFQRKLYKELVKNYNPLERPVANDSQPLTVYFSLSLLQIMDVDEKNQVLTTNIWLQMSWTDHYLQWNVSEYPGVKTVRFPDGQIWKPDILLYNSADERFDATFHTNVLVNSSGHCQCLPPGIFKSSCPMDLKNFPMDVQTCKLKFGSWSYGGWSLDLQMQEADISGYIPNGEWDLVGIPGKRSERFYECCKEPYPDVTFTVTMRRRMGYYLIQMYIPSLLIVILSWISFWINMDAAPARVGLGITTVLTMTTQSSGSRASLPKVSYVKAIDIWMAVCLLFVFSALLEYAAVNFVSRQHKELLRFRRKRRHHKSPMLNLFQEDEAGEGRFNFSAYGMGPACLQAKDGISVKGANNSNTTNPPPAPSKSPEEMRKLFIQRAKKIDKISRIGFPMAFLIFNMFYWIIYKIVRREDVHNQ
modifications: synthetic sequence of chimeric LGIC
- YFP fluorescence quenching using CNL001 (1 nM CNL001, first column): −12.765%
- YFP fluorescence quenching using CNL001 (1 nM CNL001, second column): −12.608%
- YFP fluorescence quenching using TC-5619/Bradanicline (3 nM brd): −18.49%
- YFP fluorescence quenching using Varenicline (3 nM var, first column): −17.716
- YFP fluorescence quenching using Varenicline (3 nM var, second column): −23.019
- YFP fluorescence quenching using CNL001 (10 nM CNL001, first column): 68.134%
- YFP fluorescence quenching using CNL001 (10 nM CNL001, second column): 71.394%
- YFP fluorescence quenching using TC-5619/Bradanicline (30 nM brd): 22.66%
- YFP fluorescence quenching using Facinicline (30 nM fac): −12.29
- YFP fluorescence quenching using Varenicline (30 nM var, first column): −14.993
- YFP fluorescence quenching using Varenicline (30 nM var, second column): −12.182
- YFP fluorescence quenching using CNL001 (50 nM CNL001, first column): 80.298%
- YFP fluorescence quenching using CNL001 (50 nM CNL001, second column): 82.159%
- YFP fluorescence quenching using ABT-126 (50 nM abt): −10.75%
- YFP fluorescence quenching using CNL001 (100 nM CNL001, first column): 82.404%
- YFP fluorescence quenching using CNL001 (100 nM CNL001, second column): 82.14%
- YFP fluorescence quenching using CNL002 (100 nM CNL002): 43.24%
- YFP fluorescence quenching using ABT-126 (100 nM abt): −4.11%
- YFP fluorescence quenching using AZD-0328 (100 nM azd0328): −16.69%
- YFP fluorescence quenching using ABT-126 (300 nM abt): 18.93%
- YFP fluorescence quenching using AZD-0328 (300 nM azd0328): 1.3%
- YFP fluorescence quenching using TC-5619/Bradanicline (300 nM brd): 38.02%
- YFP fluorescence quenching using Facinicline (300 nM fac): 20.11
- YFP fluorescence quenching using Varenicline (300 nM var, first column): −11.731
- YFP fluorescence quenching using Varenicline (300 nM var, second column): −10.13
- YFP fluorescence quenching using Varenicline (500 nM var, first column): −12.518
- YFP fluorescence quenching using Varenicline (500 nM var, second column): −15.043
- YFP fluorescence quenching using CNL001 (1 uM CNL001, first column): 82.34%
- YFP fluorescence quenching using CNL001 (1 uM CNL001, second column): 80.649%
- YFP fluorescence quenching using CNL002 (1 uM CNL002): 42.72%
- YFP fluorescence quenching using ABT-126 (1 uM abt): 52.64%
- YFP fluorescence quenching using TC-6987 (1 uM tc6987): 2.73
- YFP fluorescence quenching using Varenicline (1 uM var, first column): −13.385
- YFP fluorescence quenching using Varenicline (1 uM var, second column): −17.022
- YFP fluorescence quenching using TC-6987 (10 uM tc6987): 30.37
- YFP fluorescence quenching using CNL002 (30 uM CNL002): 51.43%
- YFP fluorescence quenching using AZD-0328 (30 uM azd0328): 21.78%
- YFP fluorescence quenching using Facinicline (30 uM fac): 37.62
- YFP fluorescence quenching using TC-6987 (500 uM tc6987): 33.07
- percent quench of YFP fluorescence, 30 nM TC-6683 (TC-6683 30 nM): −8.21%
- percent quench of YFP fluorescence, 300 nM TC-6683 (TC-6683 300 nM): −16.37%
- percent quench of YFP fluorescence, 3 uM TC-6683 (TC-6683 3 uM): −19.48%
- percent quench of YFP fluorescence, 30 uM TC-6683 (TC-6683 30 uM): −24.32%
- percent quench of YFP fluorescence, 100 uM TC-6683 (TC-6683 100 uM): −24.99%
- percent quench of YFP fluorescence, 10 uM ach (acetylcholine 10 uM): −21.71%
- percent quench of YFP fluorescence, 100 uM ach (acetylcholine 100 uM): 3.49%
- percent quench of YFP fluorescence, 1 mM ach (acetylcholine 1 mM): 63.34%
- percent quench of YFP fluorescence, 3 mM ach (acetylcholine 3 mM): 51.92%
